Biological target: T1, replication/repair factor RPA1 (human, UniProt P27694 1-616)
T1 construct: Endogenous protein in extracts of human TTD-A fibroblasts
Test: anti-HA immunoprecipitation from extracts of TTD-A fibroblasts expressing p8-HA, immunoblot
Excerpt: We cloned the human TFB5 cDNA from primary fibroblasts by virtue of its homology with yeast TFB5 using conventional techniques known in the art. An HA-tagged version of hTFB5 (p8-HA) was constructed via conventional molecular cloning methods (Maniatis et al, supra) and expressed in TTD-A fibroblasts and subsequently used for immuno-precipitations with anti-HA (FIG. 1a). Both the XPB core TFIIH and the associated CAK component (CDK7) were co-precipitated with p8-HA, in contrast to replication/repair factor RPA1 (data not shown). Conversely, anti-p44 (another core-TFIIH component) co-precipitated p8-HA. We conclude that, analogous to yeast, this small polypeptide is associated with TFIIH in mammalian cells.
Immunoprecipitation and immunoblot analysis. Whole cell extracts from MRC5SV, TTD1BRSV and TTD1BRSV+hTFB5HA were prepared by isolating cells from 6 petri dishes per cell line (13 cm). Collected cell-pellets were washed once in PBS prior to lysis by douncing (20 strokes using a 12.61 mm dounce homogenizer, Bellco Glass, INC., USA) in 2 ml of buffer A (50 mM Tris pH 7.9; 150 mM NaCl; 20% Glycerol; 0.1% NP40; 5 mM β-mercaptoethanol) supplemented with anti-proteases. […]

T1 sequence (P27694 whole entry): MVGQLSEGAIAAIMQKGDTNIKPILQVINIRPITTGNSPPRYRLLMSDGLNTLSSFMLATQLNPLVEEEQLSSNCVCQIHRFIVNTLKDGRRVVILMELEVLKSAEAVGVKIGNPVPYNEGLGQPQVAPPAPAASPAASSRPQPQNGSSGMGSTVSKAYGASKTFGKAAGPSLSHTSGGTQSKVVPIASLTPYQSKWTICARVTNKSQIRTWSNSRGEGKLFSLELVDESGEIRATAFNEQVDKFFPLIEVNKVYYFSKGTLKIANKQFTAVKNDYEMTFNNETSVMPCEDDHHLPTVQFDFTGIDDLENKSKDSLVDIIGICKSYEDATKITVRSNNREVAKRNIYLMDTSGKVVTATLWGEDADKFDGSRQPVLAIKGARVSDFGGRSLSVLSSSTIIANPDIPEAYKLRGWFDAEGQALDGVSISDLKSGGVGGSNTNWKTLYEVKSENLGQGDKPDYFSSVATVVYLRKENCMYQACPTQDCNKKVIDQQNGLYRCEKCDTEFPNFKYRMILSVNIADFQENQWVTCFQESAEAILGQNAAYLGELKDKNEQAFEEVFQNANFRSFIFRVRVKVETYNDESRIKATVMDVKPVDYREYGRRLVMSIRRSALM

binding result: no binding
B1: HA-tagged version of hTFB5 (p8-HA) (other)
chain: MVNVLKGVLIECDPAMKQFLLYLDESNALGKKFIIQDIDDTHVFVIAELVNVLQERVGELMDQNAFSLTQK
notes: C-terminally HA-tagged TTDA cloned in pCDNA3 and expressed in TTD1BRSV (TTD-A) fibroblasts; tested in whole cell extracts; also called TTDA-HA; hTFB5HA; not shown: C-terminal HA tag

— patent publication US20060008875A1 (UNIVERSITAIR MEDISCH CENTRUM ROTTERDAM, published 2006)
